Article PMC7827474, “DnaJ Proteins Regulate WUS Expression in Shoot Apical Meristem of Arabidopsis”

What was measured:
[1] = target: T1, MBP:WUS;MBP:At5g09540 (Arabidopsis thaliana;Arabidopsis …, UniProt Q9SB92;A2RVL3 1-292;1-280, |); assay: EMSA; more efficient than WUS alone; EMSA: 10 mM HEPES pH 7.8, 20 mM KCl, 1 mM MgCl2, 21 mM DTT (so in the source), 7.5% glycerol, 0.5% Triton-100, 300 ng carrier DNA, 0.02% BSA, 10 uL, 22 C, 30 min; 8%; settings: protein: recombinant;recombinant; tags: MBP;MBP; label: Texas Red (3' end per Methods); blunt
T1 sequence 1: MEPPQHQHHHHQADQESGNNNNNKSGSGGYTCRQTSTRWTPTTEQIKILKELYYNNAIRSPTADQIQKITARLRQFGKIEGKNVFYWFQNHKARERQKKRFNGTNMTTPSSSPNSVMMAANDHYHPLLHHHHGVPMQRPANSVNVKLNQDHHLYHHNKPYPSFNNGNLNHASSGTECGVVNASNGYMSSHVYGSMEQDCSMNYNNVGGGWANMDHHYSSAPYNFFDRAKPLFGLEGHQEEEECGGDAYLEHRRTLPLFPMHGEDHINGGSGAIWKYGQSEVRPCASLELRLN
T1 sequence 2: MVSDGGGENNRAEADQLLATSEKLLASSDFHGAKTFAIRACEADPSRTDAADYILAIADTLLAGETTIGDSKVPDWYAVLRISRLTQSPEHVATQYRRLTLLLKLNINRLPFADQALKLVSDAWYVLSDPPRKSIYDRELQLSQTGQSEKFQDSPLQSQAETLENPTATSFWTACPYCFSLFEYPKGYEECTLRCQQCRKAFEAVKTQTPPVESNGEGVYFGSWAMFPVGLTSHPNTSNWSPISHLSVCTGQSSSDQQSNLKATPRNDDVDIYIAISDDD

[2] = target: T2, MBP:WUS;MBP:SDJ3 (Arabidopsis thaliana;Arabidopsis …, UniProt Q9SB92;F4I0F5 1-292;1-797, |); assay: as above; settings: protein: recombinant;recombinant; tags: MBP;MBP; label: Texas Red (3' end per Methods); blunt
T2 sequence 1: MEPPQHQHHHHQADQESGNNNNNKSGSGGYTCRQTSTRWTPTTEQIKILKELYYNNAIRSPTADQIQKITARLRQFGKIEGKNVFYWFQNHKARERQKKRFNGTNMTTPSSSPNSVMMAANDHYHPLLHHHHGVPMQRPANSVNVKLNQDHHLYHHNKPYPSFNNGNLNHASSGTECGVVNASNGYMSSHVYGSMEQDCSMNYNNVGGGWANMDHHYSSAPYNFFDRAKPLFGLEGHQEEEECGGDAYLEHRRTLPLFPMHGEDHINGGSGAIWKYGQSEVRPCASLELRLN
T2 sequence 2: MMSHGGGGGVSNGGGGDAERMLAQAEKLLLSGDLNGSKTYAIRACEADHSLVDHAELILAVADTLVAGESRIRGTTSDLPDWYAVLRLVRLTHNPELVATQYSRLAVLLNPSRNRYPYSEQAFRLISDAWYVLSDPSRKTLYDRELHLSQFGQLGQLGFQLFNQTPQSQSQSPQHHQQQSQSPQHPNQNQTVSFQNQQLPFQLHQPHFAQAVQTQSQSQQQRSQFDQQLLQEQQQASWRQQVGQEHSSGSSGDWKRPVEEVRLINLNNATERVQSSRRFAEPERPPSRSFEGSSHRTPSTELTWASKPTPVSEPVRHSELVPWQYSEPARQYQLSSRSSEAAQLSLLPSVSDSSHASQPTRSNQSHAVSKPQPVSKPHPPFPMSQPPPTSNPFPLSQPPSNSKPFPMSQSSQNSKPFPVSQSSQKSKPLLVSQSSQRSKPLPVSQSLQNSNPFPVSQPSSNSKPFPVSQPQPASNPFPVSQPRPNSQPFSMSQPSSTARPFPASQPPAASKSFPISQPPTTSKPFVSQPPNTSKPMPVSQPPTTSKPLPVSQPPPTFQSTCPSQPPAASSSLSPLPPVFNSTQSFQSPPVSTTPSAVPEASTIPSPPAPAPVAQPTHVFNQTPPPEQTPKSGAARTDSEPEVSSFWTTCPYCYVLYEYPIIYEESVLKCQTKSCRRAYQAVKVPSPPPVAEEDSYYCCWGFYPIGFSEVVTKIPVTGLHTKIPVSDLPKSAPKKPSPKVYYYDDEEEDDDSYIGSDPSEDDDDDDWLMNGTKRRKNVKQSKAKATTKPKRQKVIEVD

[3] = target: T3, MBP:WUS (Arabidopsis thaliana, UniProt Q9SB92 1-292); assay: EMSA; EMSA: 10 mM HEPES pH 7.8, 20 mM KCl, 1 mM MgCl2, 21 mM DTT (so in the source), 7.5% glycerol, 0.5% Triton-100, 300 ng carrier DNA, 0.02% BSA, 10 uL, 22 C, 30 min; 8%; settings: protein: recombinant; tags: MBP; chain copies: 2; label: Texas Red (3' end per Methods); blunt
T3 sequence: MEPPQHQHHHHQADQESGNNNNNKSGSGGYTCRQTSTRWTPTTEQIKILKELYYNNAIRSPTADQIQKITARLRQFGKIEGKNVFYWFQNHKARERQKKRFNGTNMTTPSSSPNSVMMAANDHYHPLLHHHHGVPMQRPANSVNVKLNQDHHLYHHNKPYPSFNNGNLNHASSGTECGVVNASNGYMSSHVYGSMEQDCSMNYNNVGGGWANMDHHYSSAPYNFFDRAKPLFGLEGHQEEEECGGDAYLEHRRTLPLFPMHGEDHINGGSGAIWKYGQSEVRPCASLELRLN

Measured: binding result

B1: WUS promoter probe (pWUS) (dsDNA)
DNA 1: CTAGAATGAATAATAAAAAAAGTGAAAACCGTTTGATCATAA
DNA 2: TTATGATCAAACGGTTTTCACTTTTTTTATTATTCATTCTAG
binds: [1] | [2] | [3]
